± gives the standard deviation of the averaged measurements.
Test: total protein half-life in vivo (active degradation + dilution); higher = more stable protein
[1] = E. coli NCM3722 delta-clpP delta-lon delta-hslV, growth: N-lim chemostat, doubling time 6 h
[2] = E. coli NCM3722 delta-clpP, growth: N-lim chemostat, doubling time 6 h
[3] = E. coli NCM3722 delta-hslV, growth: N-lim chemostat, doubling time 6 h
[4] = E. coli NCM3722 delta-lon, growth: N-lim chemostat, doubling time 6 h
[5] = E. coli NCM3722 delta-smpB, growth: N-lim chemostat, doubling time 6 h
[6] = wild type E. coli NCM3722, growth: C-lim chemostat, doubling time 3 h
[7] = wild type E. coli NCM3722, growth: C-lim chemostat, doubling time 6 h
[8] = wild type E. coli NCM3722, growth: C-lim chemostat, doubling time 12 h
[9] = wild type E. coli NCM3722, growth: N-lim chemostat, doubling time 6 h
[10] = wild type E. coli NCM3722, growth: N-lim chemostat, doubling time 12 h
[11] = wild type E. coli NCM3722, growth: P-lim chemostat, doubling time 6 h
[12] = wild type E. coli NCM3722, growth: P-lim chemostat, doubling time 12 h

Sequence	total protein half-life in vivo [1] [h]	total protein half-life in vivo [2] [h]	total protein half-life in vivo [3] [h]	total protein half-life in vivo [4] [h]	total protein half-life in vivo [5] [h]	total protein half-life in vivo [6] [h]	total protein half-life in vivo [7] [h]	total protein half-life in vivo [8] [h]	total protein half-life in vivo [9] [h]	total protein half-life in vivo [10] [h]	total protein half-life in vivo [11] [h]	total protein half-life in vivo [12] [h]
MKYDTSELCDIYQEDVNVVEPLFSNFGGRASFGGQIITVKCFEDNGLLYDLLEQNGRGRVLVVDGGGSVRRALVDAELARLAVQNEWEGLVIYGAVRQVDDLEELDIGIQAMAAIPVGAAGEGIGESDVRVNFGGVTFFSGDHLYADNTGIILSEDPLDIE [P0A8R0]	5.37 ± 0.18	5.11 ± 0.26	5.16 ± 0.12	4.57 ± 0.28	4.26 ± 0.1	3.25 ± 0.3	6.31 ± 1.1	13.4 ± 0.22	5.06 ± 0.22	8.11 ± 0.27	6.02 ± 0.41	12.7 ± 1.7
MNKSQLIDKIAAGADISKAAAGRALDAIIASVTESLKEGDDVALVGFGTFAVKERAARTGRNPQTGKEITIAAAKVPSFRAGKALKDAVN [P0ACF4]	7.01 ± 0.69	–	5.94 ± 0.61	6.96 ± 0.96	5.51 ± 0.24	2.88 ± 0.054	5.1 ± 0.35	7.44 ± 0.28	5.035 ± 0.04	10.813 ± 0.0038	4.6 ± 0.72	10.8 ± 0.92
MLSIFKPAPHKARLPAAEIDPTYRRLRWQIFLGIFFGYAAYYLVRKNFALAMPYLVEQGFSRGDLGFALSGISIAYGFSKFIMGSVSDRSNPRVFLPAGLILAAAVMLFMGFVPWATSSIAVMFVLLFLCGWFQGMGWPPCGRTMVHWWSQKERGGIVSVWNCAHNVGGGIPPLLFLLGMAWFNDWHAALYMPAFCAILVALFAFAMMRDTPQSCGLPPIEEYKNDYPDDYNEKAEQELTAKQIFMQYVLPNKLLWYIAIANVFVYLLRYGILDWSPTYLKEVKHFALDKSSWAYFLYEYAGIPGTLLCGWMSDKVFRGNRGATGVFFMTLVTIATIVYWMNPAGNPTVDMICMIVIGFLIYGPVMLIGLHALELAPKKAAGTAAGFTGLFGYLGGSVAASAIVGYTVDFFGWDGGFMVMIGGSILAVILLIVVMIGEKRRHEQLLQERNGG	–	–	–	–	–	–	6.02 ± 0.41	11.8 ± 1.2	–	–	–	–
MSKVKSITRESWILSTFPEWGSWLNEEIEQEQVAPGTFAMWWLGCTGIWLKSEGGTNVCVDFWCGTGKQSHGNPLMKQGHQMQRMAGVKKLQPNLRTTPFVLDPFAIRQIDAVLATHDHNDHIDVNVAAAVMQNCADDVPFIGPKTCVDLWIGWGVPKERCIVVKPGDVVKVKDIEIHALDAFDRTALITLPADQKAAGVLPDGMDDRAVNYLFKTPGGSLYHSGDSHYSNYYAKHGNEHQIDVALGSYGENPRGITDKMTSADMLRMGEALNAKVVIPFHHDIWSNFQADPQEIRVLWEMKKDRLKYGFKPFIWQVGGKFTWPLDKDNFEYHYPRGFDDCFTIEPDLPFKSFL	5.04 ± 0.82	–	–	–	–	3.56	–	11.2	–	–	3.67 ± 0.66	9.39
MAEHLMSDVPFWQSKTLDEMSDAEWESLCDGCGQCCLHKLMDEDTDEIYFTNVACRQLNIKTCQCRNYERRFEFEPDCIKLTRENLPTFEWLPMTCAYRLLAEGKDLPAWHPLLTGSKAAMHGERISVRHIAVKESEVIDWQDHILNKPDWAQ [P0A8L5]	3.88 ± 0.37	–	–	–	–	–	1.17	–	–	–	–	1.97
MTKYALVGDVGGTNARLALCDIASGEISQAKTYSGLDYPSLEAVIRVYLEEHKVEVKDGCIAIACPITGDWVAMTNHTWAFSIAEMKKNLGFSHLEIINDFTAVSMAIPMLKKEHLIQFGGAEPVEGKPIAVYGAGTGLGVAHLVHVDKRWVSLPGEGGHVDFAPNSEEEAIILEILRAEIGHVSAERVLSGPGLVNLYRAIVKADNRLPENLKPKDITERALADSCTDCRRALSLFCVIMGRFGGNLALNLGTFGGVFIAGGIVPRFLEFFKASGFRAAFEDKGRFKEYVHDIPVYLIVHDNPGLLGSGAHLRQTLGHIL [P0A6V8]	5.167 ± 0.05	5.45 ± 0.21	4.8 ± 0.84	5.7 ± 0.3	5.16 ± 0.58	2.78 ± 0.35	6.3 ± 0.76	–	5 ± 1.4	9.21 ± 0.77	–	15.2 ± 1.1
MQKQAELYRGKAKTVYSTENPDLLVLEFRNDTSAGDGARIEQFDRKGMVNNKFNYFIMSKLAEAGIPTQMERLLSDTECLVKKLDMVPVECVVRNRAAGSLVKRLGIEEGIELNPPLFDLFLKNDAMHDPMVNESYCETFGWVSKENLARMKELTYKANDVLKKLFDDAGLILVDFKLEFGLYKGEVVLGDEFSPDGSRLWDKETLEKMDKDRFRQSLGGLIEAYEAVARRLGVQLD [P0A7D7]	4.82 ± 0.52	5.09 ± 0.82	4.79 ± 0.36	5.32 ± 0.32	4.74 ± 0.15	3.26 ± 0.21	5.98 ± 0.26	10.8 ± 0.71	4.61 ± 0.12	8 ± 0.35	5.28 ± 0.41	11.8 ± 0.46
MRIVTAAVMASTLAVSSLSHAAEVGSGDNWHPGEELTQRSTQSHMFDGISLTEHQRQQMRDLMQQARHEQPPVNVSELETMHRLVTAENFDENAVRAQAEKMANEQIARQVEMAKVRNQMYRLLTPEQQAVLNEKHQQRMEQLRDVTQWQKSSSLKLLSSSNSRSQ [P0AE85]	2.56 ± 0.11	4.81	1.65	> 8	2.394 ± 0.017	–	2.391 ± 0.0025	–	–	3.54 ± 0.086	–	2.99
MAEVTQLKRYDARPINWGKWFLIGIGMLVSAFILLVPMIYIFVQAFSKGLMPVLQNLADPDMLHAIWLTVMIALIAVPVNLVFGILLAWLVTRFNFPGRQLLLTLLDIPFAVSPVVAGLVYLLFYGSNGPLGGWLDEHNLQIMFSWPGMVLVTIFVTCPFVVRELVPVMLSQGSQEDEAAILLGASGWQMFRRVTLPNIRWALLYGVVLTNARAIGEFGAVSVVSGSIRGETLSLPLQIELLEQDYNTVGSFTAAALLTLMAIITLFLKSMLQWRLENQEKRAQQEEHHEH [P0AEB0]	4.83	5.5	4.23	–	4.22	2.64	4.97 ± 1.4	–	4.59	4.73	4.26	10.7 ± 2

Reference: the supplement of paper PMC11246515
